The values below come from patent US20150203577A1 (Chugai, published 2015).

Read-outs that look alike come from different tables or passages of the source.

Test [1] has as its target T1, mouse FcγRIII extracellular domain, C-terminal His tag (mouse, UniProt P08508 31-215).
T1 construct: Whole entry named; also called mFcγRIII; mFcgRIII
T1 chain: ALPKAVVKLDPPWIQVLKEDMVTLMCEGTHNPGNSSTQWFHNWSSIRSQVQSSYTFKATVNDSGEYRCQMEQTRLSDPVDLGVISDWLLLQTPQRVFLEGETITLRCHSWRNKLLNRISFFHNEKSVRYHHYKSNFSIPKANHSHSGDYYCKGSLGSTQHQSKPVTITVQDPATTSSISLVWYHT
Nature of the test: SPR (Biacore T200); KD of H237-MB716/MRAL-k0 / KD of variant. The text has this: (§1) The antibody H chain variable region used was the variable region H237 (SEQ ID NO: 1) of the H chain VH3-IgG1 of the anti-IL-6 receptor antibody Fv4-IgG1 described in WO2009/125825. The antibody L chain commonly used was the L chain MRAL-k0 (SEQ ID NO: 2) of the anti-IL-6 receptor antibody tocilizumab. H237-MB716/MRAL-k0 was used as a template to introduce the alterations. These variants were expressed and purified by the method of Reference Example 1 and evaluated for their binding to mFcγRII and mFcγRIII by the method of Reference Example 2 using Biacore T200.
(§2) Each altered antibody was analyzed for its interaction with each Fcγ receptor prepared above using Biacore T100 (GE Healthcare Japan Corp.), Biacore T200 (GE Healthcare Japan Corp.), Biacore A100, or Biacore 4000. The running buffer used was HBS-EP+ (GE Healthcare Japan Corp.). The assay temperature was set to 25° C. The sensor chips used were chips prepared by immobilizing Protein L (ACTIGEN or BioVision) onto Series S Sensor Chip CM5 (GE Healthcare Japan Corp.) or Series S Sensor Chip CM4 (GE Healthcare Japan Corp.) by the amine coupling method.
(SPR reads the build-up and loss of mass on a sensor chip optically.)

In test [2] the target is T2, mouse FcγRII extracellular domain, C-terminal His tag (mouse, UniProt P08101 30-210).
T2 construct: Whole entry named; also called mFcγRII; mFcgRII
T2 sequence: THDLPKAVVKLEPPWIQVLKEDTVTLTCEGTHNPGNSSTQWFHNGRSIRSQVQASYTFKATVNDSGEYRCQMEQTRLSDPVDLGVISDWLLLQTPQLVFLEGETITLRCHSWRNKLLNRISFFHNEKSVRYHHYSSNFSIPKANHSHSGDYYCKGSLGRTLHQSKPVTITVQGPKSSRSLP
The test is described as above.
From the text: as §1, §2

Test [3] addresses T1, mouse FcγRIII extracellular domain, …. Nature of the test: SPR (Biacore T200); KD of H237-mIgG1/MRAL-k0 / KD of variant.
From the text: as §1, §2

Test [4] addresses T2, mouse FcγRII extracellular domain, …. The test is described as above.
From the text: as §1, §2

Test [5] deals with T1, mouse FcγRIII extracellular domain, …. The test is described as above.
Test [6] deals with T2, mouse FcγRII extracellular domain, …. The test is described as above. This is another data set of the same source.

B1: H237-MB875/MRAL-k0 (antibody, mouse IgG1, kappa)
heavy: QVQLQESGPGLVKPSETLSLTCAVSGHSISHDHAWSWVRQPPGEGLEWIGFISYSGITNYNPSLQGRVTISRDNSKNTLYLQMNSLRAEDTAVYYCARSLARTTAMDYWGEGTLVTVSSAKTTPPSVYPLAPGSAAQTNSMVTLGCLVKGYFPEPVTVTWNSGSLSSGVHTFPAVLQSDLYTLSSSVTVPSSTWPSETVTCNVAHPASSTKVDKKIVPRDCGCKPCICEPNEVEIVFIFPPKPKDVLTITLTPKVTCVVVDISDDDPEVQFSWFVDDVEVHTAQTQPREELFNSTFRSVSELPIMHQDWLNGKEFKCRVDSDGFPAPIEKTISKTKGRPKAPQVYTIPPPKEQMAKDKVSLTCMITDFFPEDITVEWQWNGQPAENYKNTQPIMDTDGSYFVYSKLNVQKSNWEAGNTFTCSVLHEGLHNHHTEKSLSHSPGK
light: not shown
notes: copies: 2 + 2
As to B1, the “relative mFcγRIII-binding activity (MB716 = 1)” value in test [1] worked out at 32.3 fold. Moreover, the “relative mFcγRII-binding activity (MB716 = 1)” value in test [2] was determined as 16.8 fold. Moreover, the “relative mFcγRIII-binding activity (mIgG1 = 1)” value in test [3] was determined as 1.92 fold. The “relative mFcγRII-binding activity (mIgG1 = 1)” value in test [4] worked out at 72.8 fold.

B2: H237-MB877/MRAL-k0 (antibody, mouse IgG1, kappa)
heavy: QVQLQESGPGLVKPSETLSLTCAVSGHSISHDHAWSWVRQPPGEGLEWIGFISYSGITNYNPSLQGRVTISRDNSKNTLYLQMNSLRAEDTAVYYCARSLARTTAMDYWGEGTLVTVSSAKTTPPSVYPLAPGSAAQTNSMVTLGCLVKGYFPEPVTVTWNSGSLSSGVHTFPAVLQSDLYTLSSSVTVPSSTWPSETVTCNVAHPASSTKVDKKIVPRDCGCKPCICEPNEVEIVFIFPPKPKDVLTITLTPKVTCVVVDISDDDPEVQFSWFVDDVEVHTAQTQPREEQFNSTFRSVSELPIMHQDWLNGKEFKCRVDSDGFPAPIERTISKTKGRPKAPQVYTIPPPKEQMAKDKVSLTCMITDFFPEDITVEWQWNGQPAENYKNTQPIMDTDGSYFVYSKLNVQKSNWEAGNTFTCSVLHEGLHNHHTEKSLSHSPGK
light: not shown
notes: copies: 2 + 2
Turning to B2, in test [1], the “relative mFcγRIII-binding activity (MB716 = 1)” value was found to be 24.4 fold. Also, the “relative mFcγRII-binding activity (MB716 = 1)” value in test [2] is 12.7 fold. Moreover, the “relative mFcγRIII-binding activity (mIgG1 = 1)” value in test [3] amounted to 1.45 fold. For the same molecule, the “relative mFcγRII-binding activity (mIgG1 = 1)” value in test [4] is 55.3 fold.

B3: H237-MB885/MRAL-k0 (antibody, mouse IgG1, kappa)
heavy: QVQLQESGPGLVKPSETLSLTCAVSGHSISHDHAWSWVRQPPGEGLEWIGFISYSGITNYNPSLQGRVTISRDNSKNTLYLQMNSLRAEDTAVYYCARSLARTTAMDYWGEGTLVTVSSAKTTPPSVYPLAPGSAAQTNSMVTLGCLVKGYFPEPVTVTWNSGSLSSGVHTFPAVLQSDLYTLSSSVTVPSSTWPSETVTCNVAHPASSTKVDKKIVPRDCGCKPCICEPAEEESVFIFPPKPKDVLTITLTPKVTCVVVDISKDDPEVQFSWFVDDVEVHTAQTQPREEQFNSTFRSVSELPIMHQDWLNGKEFKCRVNSAAFPAPIEKTISKTKGRPKAPQVYTIPPPKEQMAKDKVSLTCMITDFFPEDITVEWQWNGQPAENYKNTQPIMDTDGSYFVYSKLNVQKSNWEAGNTFTCSVLHEGLHNHHTEKSLSHSPGK
light: not shown
notes: copies: 2 + 2
As to B3, the “relative mFcγRIII-binding activity (mIgG1 = 1)” value in test [5] came out at 0.13 fold. The “relative mFcγRII-binding activity (mIgG1 = 1)” value in test [6] came out at 3.29 fold.

B4: H237-MB883/MRAL-k0 (antibody, mouse IgG1, kappa)
heavy: QVQLQESGPGLVKPSETLSLTCAVSGHSISHDHAWSWVRQPPGEGLEWIGFISYSGITNYNPSLQGRVTISRDNSKNTLYLQMNSLRAEDTAVYYCARSLARTTAMDYWGEGTLVTVSSAKTTPPSVYPLAPGSAAQTNSMVTLGCLVKGYFPEPVTVTWNSGSLSSGVHTFPAVLQSDLYTLSSSVTVPSSTWPSETVTCNVAHPASSTKVDKKIVPRDCGCKPCICEPAEESLVFIFPPKPKDVLTITLTPKVTCVVVDISKDDPEVQFSWFVDDVEVHTAQTQPREEQFNSTFRSVSELPIMHQDWLNGKEFKCRVNSAAFPAPIEKTISKTKGRPKAPQVYTIPPPKEQMAKDKVSLTCMITDFFPEDITVEWQWNGQPAENYKNTQPIMDTDGSYFVYSKLNVQKSNWEAGNTFTCSVLHEGLHNHHTEKSLSHSPGK
light: not shown
notes: copies: 2 + 2
For the molecule B4, the “relative mFcγRIII-binding activity (mIgG1 = 1)” value in test [5] came out at 0.11 fold. Further, the “relative mFcγRII-binding activity (mIgG1 = 1)” value in test [6] was determined as 2.21 fold.

B5: H237-MB886/MRAL-k0 (antibody, mouse IgG1, kappa)
heavy: QVQLQESGPGLVKPSETLSLTCAVSGHSISHDHAWSWVRQPPGEGLEWIGFISYSGITNYNPSLQGRVTISRDNSKNTLYLQMNSLRAEDTAVYYCARSLARTTAMDYWGEGTLVTVSSAKTTPPSVYPLAPGSAAQTNSMVTLGCLVKGYFPEPVTVTWNSGSLSSGVHTFPAVLQSDLYTLSSSVTVPSSTWPSETVTCNVAHPASSTKVDKKIVPRDCGCKPCICEPNEEESVFIFPPKPKDVLTITLTPKVTCVVVDISKDDPEVQFSWFVDDVEVHTAQTQPREEQFNSTFRSVSELPIMHQDWLNGKEFKCRVNSAAFPAPIEKTISKTKGRPKAPQVYTIPPPKEQMAKDKVSLTCMITDFFPEDITVEWQWNGQPAENYKNTQPIMDTDGSYFVYSKLNVQKSNWEAGNTFTCSVLHEGLHNHHTEKSLSHSPGK
light: not shown
notes: copies: 2 + 2
Regarding B5, in test [5], the “relative mFcγRIII-binding activity (mIgG1 = 1)” value stood at 0.08 fold. The “relative mFcγRII-binding activity (mIgG1 = 1)” value in test [6] came out at 1.47 fold.

B6: H237-MB878/MRAL-k0 (antibody, mouse IgG1, kappa)
heavy: QVQLQESGPGLVKPSETLSLTCAVSGHSISHDHAWSWVRQPPGEGLEWIGFISYSGITNYNPSLQGRVTISRDNSKNTLYLQMNSLRAEDTAVYYCARSLARTTAMDYWGEGTLVTVSSAKTTPPSVYPLAPGSAAQTNSMVTLGCLVKGYFPEPVTVTWNSGSLSSGVHTFPAVLQSDLYTLSSSVTVPSSTWPSETVTCNVAHPASSTKVDKKIVPRDCGCKPCICTPAEEELVFIFPPKPKDVLTITLTPKVTCVVVDISKDDPEVQFSWFVDDVEVHTAQTQPREEQFNSTFRSVSELPIMHQDWLNGKEFKCRVNSAAFPAPIEKTISKTKGRPKAPQVYTIPPPKEQMAKDKVSLTCMITDFFPEDITVEWQWNGQPAENYKNTQPIMDTDGSYFVYSKLNVQKSNWEAGNTFTCSVLHEGLHNHHTEKSLSHSPGK
light: not shown
notes: copies: 2 + 2
With B6, the “relative mFcγRIII-binding activity (mIgG1 = 1)” value in test [5] came to 0.03 fold. In addition, the “relative mFcγRII-binding activity (mIgG1 = 1)” value in test [6] was 0.47 fold.

B7: H237-MB876/MRAL-k0 (antibody, mouse IgG1, kappa)
heavy: QVQLQESGPGLVKPSETLSLTCAVSGHSISHDHAWSWVRQPPGEGLEWIGFISYSGITNYNPSLQGRVTISRDNSKNTLYLQMNSLRAEDTAVYYCARSLARTTAMDYWGEGTLVTVSSAKTTPPSVYPLAPGSAAQTNSMVTLGCLVKGYFPEPVTVTWNSGSLSSGVHTFPAVLQSDLYTLSSSVTVPSSTWPSETVTCNVAHPASSTKVDKKIVPRDCGCKPCICEPNEVEIVFIFPPKPKDVLTITLTPKVTCVVVDISDDDPEVQFSWFVDDVEVHTAQTQPREELFNSTFRSVSELPIMHQDWLNGKEFKCRVNSDGFPAPIYKTISKTKGRPKAPQVYTIPPPKEQMAKDKVSLTCMITDFFPEDITVEWQWNGQPAENYKNTQPIMDTDGSYFVYSKLNVQKSNWEAGNTFTCSVLHEGLHNHHTEKSLSHSPGK
light: not shown
notes: copies: 2 + 2
For the molecule B7, the “relative mFcγRIII-binding activity (MB716 = 1)” value in test [1] was found to be 24.9 fold. Also, the “relative mFcγRII-binding activity (MB716 = 1)” value in test [2] was found to be 13.5 fold. For the same molecule, the “relative mFcγRIII-binding activity (mIgG1 = 1)” value in test [3] came to 1.48 fold. Besides, the “relative mFcγRII-binding activity (mIgG1 = 1)” value in test [4] worked out at 58.7 fold.

B8: H237-MB884/MRAL-k0 (antibody, mouse IgG1, kappa)
heavy: QVQLQESGPGLVKPSETLSLTCAVSGHSISHDHAWSWVRQPPGEGLEWIGFISYSGITNYNPSLQGRVTISRDNSKNTLYLQMNSLRAEDTAVYYCARSLARTTAMDYWGEGTLVTVSSAKTTPPSVYPLAPGSAAQTNSMVTLGCLVKGYFPEPVTVTWNSGSLSSGVHTFPAVLQSDLYTLSSSVTVPSSTWPSETVTCNVAHPASSTKVDKKIVPRDCGCKPCICEPNEESLVFIFPPKPKDVLTITLTPKVTCVVVDISKDDPEVQFSWFVDDVEVHTAQTQPREEQFNSTFRSVSELPIMHQDWLNGKEFKCRVNSAAFPAPIEKTISKTKGRPKAPQVYTIPPPKEQMAKDKVSLTCMITDFFPEDITVEWQWNGQPAENYKNTQPIMDTDGSYFVYSKLNVQKSNWEAGNTFTCSVLHEGLHNHHTEKSLSHSPGK
light: not shown
notes: copies: 2 + 2
In the case of B8, in test [5], the “relative mFcγRIII-binding activity (mIgG1 = 1)” value worked out at 0.09 fold. Besides, the “relative mFcγRII-binding activity (mIgG1 = 1)” value in test [6] is 2.46 fold.
